According to patent US6958236B2, “Control of gene expression in plants” (priority 2000, dated 2005):

Tested on: pCGS154 reporter
Assay: Transient transfection of S2 Drosophila cells with luciferase reporter and EcR receptor plasmids
Format: cell-based
Conditions: for Fold Activation With Chemistry: Example 9, 0.2 μM tebufenozide
Protocol: An in vivo cell based assay is designed to measure transcriptional activation by the receptors of a reporter plasmid. S2 Drosophila cells (ATCC CRL-1963) are transiently transfected with luciferase reporter and receptor expression plasmids using the calcium phosphate precipitation procedure (Di Nocera and David (1983) PNAS 80, 7095-7098). S2 cells are plated in 96 well format at a density of 2×10^5 in 166.6 μl of Schneider's Drosophila media supplemented with antibiotics and 10% heat inactivated fetal bovine serum (GIBO-BRL). The following day, 33.4 μl of a calcium phosphate precipitate containing 3-6 ng of pCGS154 reporter plasmid, 3-6 ng of EcR receptor plasmid along with salmon sperm DNA to a total of 400 ng DNA per well is added. Chemical ligands are added 16-24 hours after DNA addition to the cells. Cells are then harvested and extracted 24 hours after chemistry addition following the procedures for the luciferase assay by centrifuging and resuspending the cell pellets in 100 μl of cell culture lysis reagent (Promega). Luciferase activity is quantitated using chemiluminescence (Promega) using an analytical luminescence model 2001 luminometer.
S2 cells contain Drosophila EcR and USP. The endogenous USP can be used as the heterodimerization partner for EcR or exogenous USP expression plasmid can be added to the assay.
To compare the activities of Manduca and Drosophila EcR, S2 cells are transiently transfected using the above procedure with the reporter plasmid pCGS 154 and either full-length Drosophila EcR, DDV, full-length Manduca EcR, or MMV. Tebufenozide at 0.2 µM and 2 μM is used as the chemical ligand. Luciferase assays are performed as described above. All of the results are normalized as a ratio of activity to the light unit value for the pCGS154 reporter without chemistry.
The activities of the EcR-VP16 chimeras are compared by transiently transfecting S2 cells as described in Example 3. Tebufenozide is added to the cells at 0.2 μM concentration. Results are expressed as fold activation, a ratio of the activity of the constructs with chemistry added as compared to activity of the constructs without chemistry. All results are normalized to the luciferase activity of the pCGS154 reporter without receptor addition.
(§1) The activities of the EcR-VP16 chimeras are compared by transiently transfecting S2 cells as in Example 3. Tebufenozide is added to the cells at 0.2 μM concentration. Results are expressed as fold activation of constructs with chemistry as compared to without chemistry. All results are normalized to the luciferase activity of the pCGS154 reporter without receptor.
as §1, with “chemistry addition.” for “chemistry.”

Molecule | Fold Activation With Chemistry [fold] | Fold Activation With Chemistry Assay #1 (Example 8, 0.2 μM tebufenozide) [fold] | Fold Activation With Chemistry Assay #2 (Example 8, 0.2 μM tebufenozide) [fold] | Fold Activation With Chemistry Assay #1 (Example 7, 0.2 μM tebufenozide) [fold] | Fold Activation With Chemistry Assay #2 (Example 7, 0.2 μM tebufenozide) [fold]
CCV: EcR chimera: Chironomus tentans C+D and E domains, VP16; SEQ ID NO:87-88 (protein) MKLDDGNMSVHMGDGLDGKKSSSKKGPVPRQQEELCLVCGDRASGYHYNALTCEGCKGFFRRSVTKNAVYCCKFGHECEMDMYMKRKCQECRLKKCLAVGMRPECVVPENQCAIKRKEKKAQKEKDKVPGIVGSNTSSSSLLNQSLNNGSLKNLEISYREELLEQLMKCDPPPHPMQQLLPEKLLMENRAKGTPQLTANQVAVIYKLIWYQDGYEQPSEEDLKRITTELEEEEDQEHEANFRYITEVTILTVQLVVEFAKGLPAFIKIPQEDQITLLKACSSEVMMLRMARRYDHDSDSILFANNTAYTKQTYQLAGMEETIDDLLHFCRQMYALSIDNVEYALLTAIVIFSDRPGLEKAEMVDIIQSYYTETLKVYIANRHGGESRCSVQFAKLLGILTELRTMGNKNSEMCFSLKLRNRKLPRFLEEVWDVGDVKLAPPTDVSLGDELHLDGEDVAMAHADALDDFDLDMLGDGDSPGPGFTPHDSAPYGALDMADFEFEQMFTDALGIDEYGG | 2.0 |  |  |  | 
EBV (protein) MGREELSPASSVNGCSTDGEARRQKKGPAPRQQEELCLVCGDRASGYHYNALTCEGCKGFFRRSVTKNAVYICKFGHACEMDMYMRRKCQECRLKKCLAVGMRPECVVPETQCAQKRKEKKAQREKDKLPVSTTTVDDHMPPIMQCDPPPPEAARILECLQHEVVPRFLSEKLMEQNRLKNIPPLTANQQFLIARLVWYQEGYEQPSEEDLKRVTQTWQSDEDEEESDMPFRQITEMTILTVQLIVEFAKGLPGFAKISQSDQITLLKACSSEVMMLRVARRYDAATDSVLFANNQAYSRDNYRKAGMSYVIEDLLHFCRCMYSMMMDNVHYALLTAIVIFSDRPGLEQPLLVEEIQRYYLNTLRVYILNQNSASPRCPVVFAKILGILTELRTLGMQNSNMCISLKLKNRKLPPFLEEIWDVESRGKLAPPTDVSLGDELHLDGEDVAMAHADALDDFDLDMLGDGDSPGPGFTPHDSAPYGALDMADFEFEQMFTDALGIDEYGG |  | 975.0 | 273.7 |  | 
MCV: EcR chimera: Manduca sexta C+D domains, Chironomus tentans E domain, VP16; SEQ ID NO:91-92 (protein) MGREELSPASSINGCSTDGEPRRQKKGPAPRQQEELCLVCGDRASGYHYNALTCEGCKGFFRRSVTKNAVYICKFGHACEMDMYMRRKCQECRLKKCLAVGMRPECVVPESTCKNKRREKEAQREKDKLPVSTTTVDDHMPAIMQCDPPPPEAARIHEVVPRFLTEKLMEQNRLKNVTPLSANQKSLIARLVWYQDGYEQPSEEDLKRITTELEEEEDQEHEANFRYITEVTILTVQLVVEFAKGLPAFIKIPQEDQITLLKACSSEVMMLRMARRYDHDSDSILFANNTAYTKQTYQLAGMEETIDDLLHFCRQMYALSIDNVEYALLTAIVIFSDRPGLEKAEMVDIIQSYYTETLKVYIANRHGGESRCSVQFAKLLGILTELRTMGNKNSEMCFSLKLRNRKLPRFLEEVWDVGDVKLAPPTDVSLGDELHLDGEDVAMAHADALDDFDLDMLGDGDSPGPGFTPHDSAPYGALDMADFEFEQMFTDALGIDEYGG | 553.3 |  |  |  | 
MEV: EcR chimera: Manduca sexta C+D domains, European corn borer (Ostrinia nubilalis) E domain, VP16; SEQ ID NO:67-68 (protein) MGREELSPASSINGCSTDGEPRRQKKGPAPRQQEELCLVCGDRASGYHYNALTCEGCKGFFRRSVTKNAVYICKFGHACEMDMYMRRKCQECRLKKCLAVGMRPECVVPESTCKNKRREKEAQREKDKLPVSTTTVDDHMPAIMQCDPPPPEAARIHEVVPRFLTEKLMEQNRLKNVTPLSANQKSLIARLVWYQDGYEQPSEEDLKRVTQTWQSADEEDEDSDMPFRQITEMTILTVQLIVEFAKGLPGFSKISQPDQITLLKACSSEVMMLRVARRYDAVSDSVLFANNQAYTRDNYRKAGMAYVIEDLLHFCRCMYSMSMDNVHYALLTAIVIFSDRPGLEQPQLVEEIQRYYLNTLRVYIMNQHSASPRCAVIYAKILSVLTELRTLGMQNSNMCISLKLKNRKLPPFLEEIWDVKLAPPTDVSLGDELHLDGEDVAMAHADALDDFDLDMLGDGDSPGPGFTPHDSAPYGALDMADFEFEQMFTDALGIDEYGG |  |  |  | 363.7 | 131.5
MBV: EcR chimera: Manduca sexta C+D domains, black cutworm (Agrotis ipsilon) E domain, VP16; SEQ ID NO:65-66 (protein) MGREELSPASSINGCSTDGEPRRQKKGPAPRQQEELCLVCGDRASGYHYNALTCEGCKGFFRRSVTKNAVYICKFGHACEMDMYMRRKCQECRLKKCLAVGMRPECVVPESTCKNKRREKEAQREKDKLPVSTTTVDDHMPAIMQCDPPPPEAARIHEVVPRFLTEKLMEQNRLKNVTPLSANQKSLIARLVWYQEGYEQPSEEDLKRVTQTWQSDEDEEESDMPFRQITEMTILTVQLIVEFAKGLPGFAKISQSDQITLLKACSSEVMMLRVARRYDAATDSVLFANNQAYSRDNYRKAGMSYVIEDLLHFCRCMYSMMMDNVHYALLTAIVIFSDRPGLEQPLLVEEIQRYYLNTLRVYILNQNSASPRCPVVFAKILGILTELRTLGMQNSNMCISLKLKNRKLPPFLEEIWDVESRGKLAPPTDVSLGDELHLDGEDVAMAHADALDDFDLDMLGDGDSPGPGFTPHDSAPYGALDMADFEFEQMFTDALGIDEYGG |  | 559.1 | 866.7 | 215.7 | 211.1
MFV: EcR chimera: Manduca sexta C+D domains, fall armyworm (Spodoptera frugiperda) E domain, VP16; SEQ ID NO:69-70 (protein) MGREELSPASSINGCSTDGEPRRQKKGPAPRQQEELCLVCGDRASGYHYNALTCEGCKGFFRRSVTKNAVYICKFGHACEMDMYMRRKCQECRLKKCLAVGMRPECVVPESTCKNKRREKEAQREKDKLPVSTTTVDDHMPAIMQCDPPPPEAARIHEVVPRFLTEKLMEQNRLKNVTPLSANQKSLIARLVWYQEGYEQPSEEDLKRVTQTWQLEEEEEEETDMPFRQITEMTILTVQLIVEFAKGLPGFSKISQSDQITLLKASSSEVMMLRVARRYDAATDSVLFANNQAYTRDNYRKAGMSYVIGDLLHFCRCMYSMSMDNVHYALLTAIVIFSDRPGLEQPLLVEEIQRYYLKTLRVYILNQYSASPRCAVLFGKILGVLTELRTLGTQNSNMCISLKLKNRKLPPFLEEIWDVKLAPPTDVSLGDELHLDGEDVAMAHADALDDFDLDMLGDGDSPGPGFTPHDSAPYGALDMADFEFEQMFTDALGIDEYGG |  |  |  | 159.9 | 175.4
DBV: EcR chimera: Drosophila melanogaster C+D domains, black cutworm E domain, VP16; SEQ ID NO:73-74 (protein) MGRDDLSPSSSLNGYSANESCDAKKSKKGPAPRVQEELCLVCGDRASGYHYNALTCEGCKGFFRRSVTKSAVYCCKFGRACEMDMYMRRKCQECRLKKCLAVGMRPECVVPENQCAMKRREKKAQKEKDKMTTSPSSQHGGNGSLASGGGQDFVKKEILDLMTCEPPQHATIPLLPDEILAKCQARNIPSLTYNQLAVIYKLIWYQEGYEQPSEEDLKRVTQTWQSDEDEEESDMPFRQITEMTILTVQLIVEFAKGLPGFAKISQSDQITLLKACSSEVMMLRVARRYDAATDSVLFANNQAYSRDNYRKAGMSYVIEDLLHFCRCMYSMMMDNVHYALLTAIVIFSDRPGLEQPLLVEEIQRYYLNTLRVYILNQNSASPRCPVVFAKILGILTELRTLGMQNSNMCISLKLKNRKLPPFLEEIWDVESRGKLAPPTDVSLGDELHLDGEDVAMAHADALDDFDLDMLGDGDSPGPGFTPHDSAPYGALDMADFEFEQMFTDALGIDEYGG |  | 17.37 | 3.94 |  | 
